Consider 3 molecules from patent US11504374B2, “Compositions and methods for the treatment of a beta-catenin-associated disease or disorder” (Dicerna Pharmaceuticals, Inc., priority 2016, dated 2022).

The test system of data set [1] is LS411N tumors. Description: Tumor growth inhibition, subcutaneous LS411N colorectal tumors in nude mice. It counts as in vivo. The note with it: for growth inhibition: single agent, 0.1 mg/kg; for tumor growth inhibition: 2 cycles. The protocol: (§1) 6-8 week old Hsd:Athymic Nude-Foxn1^nu mice (hereby referred to as nude mice) were injected subcutaneously with LS411N (5×10^6 cells), SW403 (5×10^6 cells), Ls174t (5×10^6 cells) or Hep3B (5×10^6 cells+matrigel) under the right shoulder. Tumor volume was measured twice a week to monitor tumor growth/suppression. Dosing was initiated when the tumors reached 200-250 mm^3. For tumor growth inhibition studies, animals were randomized and assigned to different cohorts and subjected to dosing cycles. BCAT1 or LNP was given intravenously via lateral tail vein at a total volume of 10 ml/kg. Trametinib was given orally at a volume of 10 mi/kg.
(§2) Human cell lines LS411N and SW403, Ls174t and Hep3B were obtained from ATCC (Manassas, Va.) and grown in RPMI/DMEM medium supplemented with 10% FBS. LS411N is a human colorectal cell line harboring mutations in the adenomatous polyposis coli (APC) and BRAF genes. APC is a component of the destruction complex in the Wnt signaling pathway. SW403 is a human colorectal cell line harboring mutations in the APC and KRAS genes. LS174t is a human colorectal cell line harboring mutations in the CTNNB1 and KRAS genes.
The single agent efficacy of BCAT1 was evaluated at different dose levels in different colorectal cancer models. […] FIG. 2A. […] FIG. 2C. […] Without intending to be bound by any theory, it appears that the Wnt pathway may be reactivated when treatment is stopped.
We then evaluated the single agent Trametinib in LS411N tumor bearing mice at different dose levels (3, 1 and 0.3 mg/kg) and selected […] as the dose to be used in the combination study. FIG. 5A. For BCAT1, a dose of 0.1 mg/kg was selected from the previous single agent efficacy studies to be used in combination with Trametinib to treat LS411N tumors. […] FIG. 5B.

The test system of data set [2] is SW403 tumors. Description: Tumor growth inhibition, subcutaneous SW403 colorectal tumors in nude mice. Type of data set: in vivo. The note with it: for tumor growth inhibition: each agent alone, 0.3 mg/kg. How it is done:
as §1, §2
The combination treatment was also evaluated in a third CRC model (SW403) that has APC and KRAS mutations. As described for the other two models, we first checked the single agent Trametinib efficacy at different dose levels in these tumors and picked 0.3 mg/kg as the optimal dose for the combination study (FIG. 5C). BCAT1 was administered at the same dose (0.3 mg/kg) and used in combination with Trametinib.
In these CRC models, tumors generally develop resistance to Trametinib over time. To investigate this resistance, SW403 tumors were continuously treated with Trametinib at 3 mg/kg doses (qdx3, 3 mg/kg×3) until the tumors stopped responding to the treatment. Once the tumors stopped responding and became resistant to Trametinib treatment, we treated the tumors with a combination of BCAT1 and Trametinib (qdx3, 3mpk+ qdx3, 3mpk) (around Day 42). […]

Data set [3] deals with Ls174t liver metastases. Description: Survival in Ls174t CRC liver metastases model. Type of data set: in vivo, nude mice. The note with it: for mice that died around day 48: 2 mg/kg or 2+2 mg/kg, start 3 weeks after implantation; for median survival: single agent 2 mg/kg, start 3 weeks after implantation of 2×10^6 cells. How it is done:
(§3) Colorectal cancer (CRC) liver metastases models were generated by surgically implanting 1-2×10^6 cells in the spleen of nude mice after midline abdominal incision. After surgery, the abdominal incision was closed with 5-0 to 6-0 absorbable, nonbraided suture and the skin was closed with a single wound clip. Mice were anesthetized with isoflurane before initiating the surgery and during surgery. Buprenorphine was given preoperatively and post-operatively at 0.1 mg/kg subcutaneously for pain relief. Mice were held in a pathogen-free environment and all procedures involving animals were performed according to protocols approved by Dicerna Pharmaceuticals' Institutional Animal Care and Use Committee (Dicerna-IACUC).
We developed multiple CRC liver metastatic models by surgically implanting Ls174t and LS411N cells in spleen.
Before we evaluated the combination strategies in these CRC metastatic models, we ran a single agent Trametinib efficacy in the Ls174t liver metastatic model. Fewer number of Ls174t cells (1×10^6 cells) were implanted in the spleen this model to reduce the aggressiveness of the tumor progression. 18 days after the implantation, mice were randomly distributed into 3 groups and treated with PBS, Trametinib at 1 mg/kg or Trametinib at 3 mg/kg dose levels (qdx3, 3 cycles).
Next we ran a combination efficacy study in mice bearing Ls714t liver metastasis based on the doses used in the single agent efficacy studies. This time, the treatment was initiated 3 weeks after tumor implantation of 2×10^6 Ls174t cells. BCAT1, Placebo, and Trametinib were dosed at 2 mg/kg and the combination groups (Placebo+Trametinib or BCAT1+Trametinib) were dosed at 2+2 mg/kg.

The subject of data set [4] is Hep3B tumors. The data set can be described thus: Tumor growth inhibition, mouse model bearing Hep3B tumors. It counts as in vivo. The note with it: administered individually at 2 mg/kg. How it is done: as §1
Combination therapy with BCAT1 and a nucleic acid inhibitor molecule that targets the c-Myc gene (“MYC1”) was also evaluated. MYC1 has a 25 base pair passenger strand and a 27 base pair guide strand that form a duplex region consisting of 25 base pairs, where the 3′ end of the passenger strand and 5′ end of the guide strand form a blunt end, and the 3′ end of the guide strand consists of a single-stranded, two-base overhang. FIG. 9. The MYC1 construct was formulated in EnCore LNP.

Data set [5] concerns multiple tumor types (xenograft, PDX, GEM tumors). The data set can be described thus: Delivery of LNP formulated BCAT1 nucleic acid payload to tumors in mouse models. Type of data set: in vivo. An excerpt: The BCAT1 construct was formulated in EnCore lipid nanoparticles (LNP).
Data set [6] has as its system LS174t tumors. The data set can be described thus: Tumor growth inhibition, subcutaneous Ls174t colorectal tumors in nude mice. It counts as in vivo. The note with it: qdx3, 3 mg/kg, 2 cycles. How it is done: as §1, §2
Combination therapy with BCAT1 and an MEK inhibitor (trametinib) was evaluated. Trametinib (99% purity) was dissolved in DMSO to make a clear solution of 5 mg/ml. […]

Data set [7] concerns RKO tumors. The data set can be described thus: Tumor growth inhibition, β-catenin/APC wild type RKO colorectal tumors. Type of data set: in vivo. The conditions noted are these: qdx3, 3 mg/kg, 2 cycles.
The subject of data set [8] is LS411N liver metastases. The data set can be described thus: Survival in LS411N CRC liver metastases model. It counts as in vivo, nude mice. The conditions noted are these: qdx3, 3 mg/kg, 3 weeks. The protocol: as §3
We developed multiple CRC liver metastatic models by surgically implanting Ls174t and LS411N cells in spleen. 2-5 weeks after implanting 2×10^6 cells, the primary Ls174t tumors grown in the spleen spontaneously metastasized to the liver. To see if BCAT1 monotherapy will treat both primary and metastatic tumors and improve survival, 2 weeks after the tumor implantation, mice bearing Ls174t tumors were treated with BCAT1 or placebo at 3 mg/kg doses (qdx3, 3 mg/kg, 3 cycles). […] The […] survival time (“MST”) of the control-treated group is 31 days, whereas the MST of the BCAT1-treated group is 46 days).
Similarly, the mice with LS411N liver metastases were also treated with BCAT1 or controls (placebo or PBS) at the same dose levels for 3 weeks. Unlike the Ls174t tumors, LS411N tumors took a much longer time to metastasize to the liver after implanting 2×10^6 cells in the spleen. The treatment was initiated 18 days after the implantation of LS411N cells in the spleen. It took 112 days for all the control treated mice to die. […] It took about 6 months for all of the BCAT1-treated mice to die. In summary, BCAT treatment extended the survival of mice bearing LS411N liver metastasis by up to two-fold compared to the control treatment groups (MST of PBS/Placebo treatment groups is 99-102 days, whereas the MST of the BCAT1-treated group is 181 days).

[9] abbreviates: start 18 days after implantation.

Take `CC(=O)Nc1cccc(-n2c(=O)n(C3CC3)c(=O)c3c(Nc4ccc(I)cc4F)n(C)c(=O)c(C)c32)c1` [Trametinib, trametinib]: the growth inhibition entry in data set [1] is listed as “about 20%”. Besides, in data set [2], the tumor growth inhibition is recorded as 40%. In addition, the “mean survival time (MST)” value is recorded as 47 days in data set [3] (1 mg/kg, qdx3, 3 cycles, 1×10^6 cells, start 18 days after implantation) and 65 days in data set [3] (3 mg/kg, qdx3, 3 cycles, 1×10^6 cells, start 18 days after implantation). The “mice that died around day 48” value in data set [3] turned out to be 90%. Besides, the median survival in data set [3] (qdx3, 3 cycles) turned out to be 44 days.

For the molecule “MYC1: nucleic acid inhibitor molecule targeting the c-Myc gene; sense strand SEQ ID NO:5, antisense strand SEQ ID NO:6 (sense AGCUUUUUUGCCCUGCGUGACCAGA; antisense UCUGGUCACGCAGGGCAAAAAAGCUCC; listed as RNA, chemistry not given here)”, in data set [4], the growth inhibition is recorded as 40%.

B1: BCAT1: nucleic acid inhibitor molecule targeting the β-catenin gene; sense strand SEQ ID NO:1, antisense strand SEQ ID NO:2 (nucleic acid)
sense: AGAAUACAAAUGAUGUAGAAACAGCC
antisense: UAGCUAUCGTGGCUGUUUCUACAUCAUUUGUAUUCUGC
modifications: chemistry not given here
Take B1: in data set [5] (HCT116, DLD1, HL60), the “delivery of BCAT1 to tumors” value is on record as “Negative: HCT116, DLD1, HL60”. Further, the “delivery of the nucleic acid payload to tumors” value in data set [5] (LNP formulated, tumor types of Table I (subcutaneous, orthotopic, disseminated, metastatic xenografts, PDX, GEM)) is recorded as “effectively delivered”. For the same molecule, in data set [1] (qdX3, 3 mg/kg, discontinued after the second cycle), the “tumor growth after therapy discontinued” value was “tumor growth resumed to a level roughly comparable to untreated subjects”. The tumor growth inhibition in data set [1] (qdx3, 0.3 mg/kg) came to 47%; in data set [1] (qwx1, 3 mg/kg, weekly dosing), 60%; in data set [2], 20%. Also, in data set [1] (qdx3, 1 mg/kg, two weekly dosing cycles, i.v.), the “tumor growth inhibition relative to vehicle-treated animals” value worked out at 82%. Further, the growth inhibition result was “about 20%” in data set [1] and 47% in data set [4]. In addition, the anti-tumor efficacy entry was “Robust efficacy” in data set [2] (qdx3, 3 mg/kg, 2 cycles); “Robust efficacy” in data set [6]; “No efficacy” in data set [7]. For the same molecule, in data set [3], the “mice that died around day 48” value stood at 90%. Further, the “mean survival time (MST)” value in data set [3] (qdx3, 3 mg/kg, 3 cycles, start 2 weeks after implantation of 2×10^6 cells) is 46 days; in data set [8] (setting [9]) it was 181 days. In data set [3] (qdx3, 3 cycles), the median survival worked out at 45 days. For the same molecule, the “extension of survival compared to control treatment groups” value in data set [8] is “up to two-fold”. Besides, the “time for all treated mice to die” value in data set [8] was “about 6 months”. The “mice surviving at 112 days post-implant” value in data set [8] (setting [9]) turned out to be 75%.
